US7514534 (DYAX, dated 2009)

B1: A10 (antibody, human IgG4, V domains shown)
VH: EVQLLESGGGLVQPGGSLRLSCAASGFTFSAYRMFWVRQAPGKGLEWVSSIWPSGGTTSYADSVKGRFTISRDNSKNTLYLQMNSLRAEDTAVYYCARDRGYDSSGYFDYWGQGTLVTVSS
VL: QSELTQPPSASGTPGQRVTISCSGGSSNIGSNYVSWYQQLPGTAPKLLIYNNNQRPSGVPDRFSGSKSGTSASLAISGLRSEDEADYYCAAWDDSLSSAVFGGGTQLTVLG
notes: whole human IgG4
B2: A11 (antibody, human IgG4, V domains shown)
VH: EVQLLESGGGLVQPGGSLRLSCAASGFTFSWYTMMWVRQAPGKGLEWVSRISPSGGHTLYADSVKGRFTISRDNSZNTLYLQMNSLRAEDTAVYYCARDTWDDYYDSSGYYNDFDYWGQGTLVTVSS
VL: QSALTQPPSVSLAPGQTARITCGGNNIGTKSVHWYQQKPGQAPVLVVYDDSDRPSGIPERFSGSNSGNTATLTISRVEAGDEADYYCQVWDSGSDHQVFGGGTKLTVLG
notes: whole human IgG4; the VHC entry has one unread residue (printed z, K75z)
B3: A12 (antibody, human IgG4, V domains shown)
VH: EVQLLESGGGLVQPGGSLRLSCAASGFTFSAYWMDWVRQAPGKGLEWVSVIYPSGGSTNYADSVKGRFTISRDNSKNTLYLQMNSLRAEDTAVYYCAREGIAAAAPMDVWGKGTTVTVSS
VL: DIQMTQSPGTLSLSPGERATLSCRASQSVSRSYLGWYQQKPGQAPRLLIYGASNRATGIPDRFSGSGSGTDFTLTISRLEPEDFAVYYCQQYGISPLTFGPGTKVDIKR
notes: whole human IgG4
B4: B01 (antibody, human IgG4, V domains shown)
VH: EVQLLESGGGLVQPGGSLRLSCAASGFTFSTYDMLWVRQAPGKGLEWVSSISPSGGSTSYADSVKGRFTISRDNSKNTLYLQLNSLRAEDTAVYYCAREKASDLSGTYSEALDHWGQGTLVTVSS
VL: DIQMTQSPGTLSLSPGERATLSCRASQSVSSSYFAWYQQKPGQAPRLLIYDASSRATGIPDRFSGSGSGTDFTLTISRLEPEDFAVYYCQQYGSSPPMYTFGQGTKLEIKR
notes: whole human IgG4
B5: B06 (antibody, human IgG4, V domains shown)
VH: EVQLLESGGGLVQPGGSLRLSCAASGFTFSQYFMKWVRQAPGKGLEWVSSISPSGGLTQYADSVKGRFTISRDNSKNTLYLQMNSLRAEDTAVYYCARGGIEAPGSPSDYWGQGTLVTVSS
VL: DIQMTQSPSFLSASVGDRVTITCRASQGISSYLAWYQQKPGKAPKLLIYAASTLQSGVPSRFSGSGSGTDFTLTISSLEPEDFATYYCQESYSTPFFTFGPGTKVDIRR
notes: whole human IgG4
B6: B08 (antibody, human IgG4, V domains shown)
VH: EVQLLESGGGLVQPGGSLRLSCAASGFTFSRYMMNWVRQAPGKGLEWVSVIWSSGGKTLYADSVKGRFTISRDNSKNTLYLQMKSLRAEDTAVYYCARGGYNNYYYSMDVWGQGTTVTVSS
VL: QSELTQPHSVSGSPGKTVTISCTRSSGSIAGNYVQWYQQRPGSSPTTVIYEDNKRPSGVPDRFSGSIDSSSNSASLIISGLKTEDEADYYCHSYDTSNQVFGGGTKLTVLG
notes: whole human IgG4
B7: A01 (antibody, human IgG4, V domains shown)
VH: EVQLLESGGGLVQPGGSLRLSCAASGFTFSAYNMFWVRQAPGKGLEWVSGIGSSGGIAPYADSVKGRFTISRDNSKNTLYLQMNSLRAEDTAVYYCARAAYEVENWFDPWGQGTLVTVSS
VL: DIQMTQSPGTLSLSPGERATLSCRASQIVRSTYLAWYQQKPGQAPRLLIYGTSSRATGVPDRFSGSGSGTDFTLTISGLEPEDFALYYCQRYGDSPPITFGQGTRLEITR
notes: whole human IgG4
B8: B10 (antibody, human IgG4, V domains shown)
VH: EVQLLESGGGLVQPGGSLRLSCAASGFTFSSYAMMWVRQAPGKGLEWVSWIVPSGGTTFYADSVKGRFTISRDNSKNTLYLQMNSLRAEDTAVYYCARGLYRWGQGTLVTVSSASTKGPSVFP
VL: DIQMTQSPSSLSASVGDRVTIACRTSQNVNRYLNWYQHKLGQAPKLLIYGATILQSGVPSRFRGSGSGTDFILTITNLQPEDFAVYYCQQTYSPPLTFGQGTKAEFKGTVAAPSV
notes: whole human IgG4
B9: C12 (antibody, V domains shown)
VH: EVQLLESGGGLVQPGGSLRLSCAASGFTFSAYNMMWVRQAPGKGLEWVSRIYPSGGYTLYADSVKGRFTISRDNSKNTLYLQMNSLRAEDTAVYYCARQKLMIRAVRPFDYWGQGTLVTVSS
VL: QSELTQPPSVSVSPAQTASITCSGDKLGDKYACWYQQKPGQSPVLVIYEDTKRPSGIPERFSGSNSGNTATLTISGTQVMDEADYYCQVWDSSTAVFGGGTKLTVLG
notes: whole human IgG4
B10: A1-orig (antibody, human IgG4, V domains shown)
VH: EVQLLESGGGLVQPGGSLRLSCAASGFTFSYYRMSWVRQAPGKGLEWVSSIGPSGGDTLYADSVKGRFTISRDNSKNTLYLQMNSLRAEDTAVYYCARSFSSGPYYFDYWGQGTLVTVSS
VL: QSVLTQPPSASGTPGQRVIISCSGSSSNIGSHYVHWYQQVPGTAPKLLIYRNGQRPSGVPDRFSGFKSGTSASLAISGLRSEDEANYYCATWDDSVLFGGGTTLTVLG
notes: whole human IgG4
B11: D6-orig (antibody, human IgG4, V domains shown)
VH: EVQLLESGGGLVQPGGSLRLSCAASGFTFSMYSMRWVRQAPGKGLEWVSSIYPSGGSTEYADSVKGRFTISRDNSKNTLYLQMNSLRAEDTAVYYCAREGGENDYWGQGTLVTVSS
VL: DIQMTQSPLSLSASVGDRVAITCRASQSIDTYLNWYQQKPGKAPKLLIYAASKLEDGVPSRFSGSGTGTDFTLTIRSLQPEDFASYFCQQSYSSPGITFGPGTKVEIKR
notes: whole human IgG4
B12: B02 (antibody, human IgG4, V domains shown)
VH: EVQLLESGGGLVQPGGSLRLSCAASGFTFSDYFMKWVRQAPGKGLEWVSSIYPSGGPTKYADSVKGRFTISRDNSKNTLYLQMNSLRAEDTAVYYCARERSSGWYGYYYYGMDVWGQGTTVTVSS
VL: DIQMTQSPSSLSASVGDRVAITCRASQSIDTYLNWYQQKPGKAPKLLIYAASKLEDGVPSRFSGSGTGTDFTLTIRSLQPEDFASYFCQQSYSSPGITFGPGTKVEIKR
notes: whole human IgG4
B13: B04 (antibody, human IgG4, V domains shown)
VH: EVQLLESGGGLVQPGGSLRLSCAASGFTFSFYWMMWVRQAPGKGLEWVSGISSSGGFTKYADSVKGRFTISRDNSKNTLYLQMNSLRAEDTAVYYCARETSRRAFDIWGQGTMVTVSS
VL: DIQMTQSPSSVSASVGDRVTITCRASQGISKSLAWYQQKPGKAPKLLVYGAFSLESGVPSRFSGTGAGTDFILTISRLQPEDFATYYCQQANSFPLTFGGGTKVEIKR
notes: whole human IgG4
B14: H6-orig (antibody, human IgG4, V domains shown)
VH: EVQLLESGGGLVQPGGSLRLSCAASGFTFSQYWMNWVRQAPGKGLEWVSGIGPSGGITYYADSVKGRFTISRDNSKNTLYLQMNSLRAEDTAVYYCARGEEDGYNSDYWGQGTLVTVSS
VL: QSELTQPPSASGSPGQSVTISCTGTSSDVGAYNYVSWYQQHPGKAPKLIIYEVNKRPSGVPDRFSASKSGNTASLTVSGLQAEDEADYYCNSYAGSNSLIFGGGTKLTVLG
notes: whole human IgG4
B15: B07 (antibody, human IgG4, V domains shown)
VH: EVQLLESGGGLVQPGGSLRLSCAASGFTFSQYQMIWVRQAPGKGLEWVSVIVPSGGITNYADSVKGRFTISRDNSKNTLYLQMNSLRAEDTAVYYCARGGVEAVDSSSPDYWGQGTLVTVSS
VL: DIQMTQSPATLSLSPGERATLSCRASQSVSSYLAWYQQKPGQAPRLLIYDASNRATGIPARFSGSGSGTDFTLTISSLEPEDFAVYYCQQRSNWPRTFGGGTKVEIKR
notes: whole human IgG4

Key:
[1] = target: T1, MMP-9 (UniProt P14780 107-707, limits assumed); assay: cross-reactivity ELISA on coated MMP
T1 construct: also called gelatinase
T1 sequence (P14780 107-707 limits assumed): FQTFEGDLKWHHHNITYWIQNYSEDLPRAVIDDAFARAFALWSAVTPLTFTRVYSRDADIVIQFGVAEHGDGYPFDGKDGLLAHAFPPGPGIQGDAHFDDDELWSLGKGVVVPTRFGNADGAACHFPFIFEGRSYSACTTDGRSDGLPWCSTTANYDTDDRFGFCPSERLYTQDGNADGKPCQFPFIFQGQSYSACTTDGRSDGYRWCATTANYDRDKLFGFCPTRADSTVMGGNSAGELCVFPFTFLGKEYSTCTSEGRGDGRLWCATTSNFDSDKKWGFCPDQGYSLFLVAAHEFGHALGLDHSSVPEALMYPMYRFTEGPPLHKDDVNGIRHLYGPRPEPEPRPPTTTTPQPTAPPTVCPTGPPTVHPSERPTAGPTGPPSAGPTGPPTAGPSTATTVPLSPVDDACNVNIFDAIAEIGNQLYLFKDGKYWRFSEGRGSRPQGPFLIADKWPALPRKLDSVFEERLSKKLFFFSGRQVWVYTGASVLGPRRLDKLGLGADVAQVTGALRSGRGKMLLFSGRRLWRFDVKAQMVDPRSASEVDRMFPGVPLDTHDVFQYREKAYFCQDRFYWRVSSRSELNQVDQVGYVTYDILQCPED
Procedure: (§1) Twenty-one of the reformatted MMP-26 antibodies were tested for MMP cross reactivity by ELISA analysis. MMP-3, MMP-7, MMP-9, and MMP-12 were coated onto Immulon 2 HB 96-well plates at a concentration of 1 μg/ml for 1 hour at 37° C. The plates were blocked with PBS-T containing 5% (w/v) nonfat dry milk for thirty minutes and subsequently washed with PBS-T. Each antibody was tested for reactivity to all of the above mentioned MMPs at a concentration of 2 μg/ml with an incubation time of 1 hour. Bound antibody was detected with an HRP-conjugated anti-human secondary antibody (Table 3, NT=not tested.).

[2] = target: T2, MMP-3 (UniProt P08254 100-477, limits assumed); assay: cross-reactivity ELISA on coated MMP
T2 construct: also called stromelysin-1
T2 sequence (P08254 100-477 limits assumed): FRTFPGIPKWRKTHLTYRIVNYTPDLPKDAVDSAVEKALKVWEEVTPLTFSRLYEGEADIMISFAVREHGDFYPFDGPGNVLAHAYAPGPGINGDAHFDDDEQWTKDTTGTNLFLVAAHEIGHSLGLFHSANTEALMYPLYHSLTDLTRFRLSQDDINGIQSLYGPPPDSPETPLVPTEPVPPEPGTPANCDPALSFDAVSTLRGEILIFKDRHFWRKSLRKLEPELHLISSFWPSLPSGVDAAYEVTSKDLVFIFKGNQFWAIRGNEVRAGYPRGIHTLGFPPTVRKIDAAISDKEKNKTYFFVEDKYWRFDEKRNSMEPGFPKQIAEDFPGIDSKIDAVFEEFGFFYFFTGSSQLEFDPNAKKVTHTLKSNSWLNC
Procedure: as §1

[3] = target: T3, MMP-26 catalytic domain, tagged with hexa-histidine (human, UniProt Q9NRE1 90-261); assay: bead-based ELISA, MMP-26 on nickel beads, IgG4 culture supernatant
T3 construct: the forward primer adds Met-Ala before it; also called MMP-26 target protein; Matrilysin-2; not shown: Also any N-terminal residues added by the forward primer (Met-Ala according to our card; the primers were not visible to me)
T3 sequence: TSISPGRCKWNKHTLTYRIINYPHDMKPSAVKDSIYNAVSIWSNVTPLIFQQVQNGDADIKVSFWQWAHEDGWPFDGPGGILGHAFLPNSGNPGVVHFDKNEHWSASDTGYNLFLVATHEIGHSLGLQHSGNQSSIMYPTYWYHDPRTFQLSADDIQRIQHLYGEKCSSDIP
Procedure: Reformatted and expressed full-length MMP-26 binding IgG4 antibodies were tested for specificity in a bead-based ELISA. Approximately 1.25 μg of MMP-26 protein was bound to nickel-coated magnetic beads (Novagen) which had been pre-blocked with phosphate buffered saline containing 5% (w/v) nonfat dry milk and 0.05% (v/v) Tween-20. The beads were washed in phosphate buffered saline containing 0.05% (v/v) Tween-20 (PBS-T) and 100 uls of unpurified cell culture supernatant containing transiently produced MMP-26-binding antibodies was added and incubated on a rotator for sixty minutes. The beads were washed with PBS-T and MMP-26-binding antibodies were detected with an HRP-conjugated anti-human secondary antibody. Data is expressed in fold over background where background consists of beads, blocking agent, and culture supernatant containing target antibody (Table 2; in this table, Results shown as fold over background (F>B) where background consists of beads, blocking agent, and culture supernatant).

Binder | binding result [1] | binding result [2] | F > B (fold over background) [3] [fold over background]
B1 | no binding (tested: 2 µg/ml) | no binding (tested: 2 µg/ml) | 1.84
B2 | no binding (tested: 2 µg/ml) | no binding (tested: 2 µg/ml) | 1.7
B3 | no binding (tested: 2 µg/ml) | no binding (tested: 2 µg/ml) | 1.8
B4 | no binding (tested: 2 µg/ml) | no binding (tested: 2 µg/ml) | 2.3
B5 | no binding (tested: 2 µg/ml) | no binding (tested: 2 µg/ml) | 2.1
B6 | no binding (tested: 2 µg/ml) | no binding (tested: 2 µg/ml) | 3
B7 | no binding (tested: 2 µg/ml) | no binding (tested: 2 µg/ml) | 3.3
B8 | no binding (tested: 2 µg/ml) |  | 2.7
B9 | no binding (tested: 2 µg/ml) |  | 1.8
B10 |  | no binding (tested: 2 µg/ml) | 
B11 |  | no binding (tested: 2 µg/ml) | 
B12 | no binding (tested: 2 µg/ml) | no binding (tested: 2 µg/ml) | 
B13 | no binding (tested: 2 µg/ml) | no binding (tested: 2 µg/ml) | 
B14 | no binding (tested: 2 µg/ml) | no binding (tested: 2 µg/ml) | 
B15 | no binding (tested: 2 µg/ml) | no binding (tested: 2 µg/ml) | 
